From FireProtDB (doi:10.1016/0022-2836(91)90566-o)

B1: DNA-Binding protein, P69542 (parent)
chain: MIKVEIKPSQAQFTTRSGVSRQGKPYSLNEQLCYVDLGNEYPVLVKITLDEGQPAYAPGLYTVHLSSFKVGQFGSLMIDRLRLVPAK

Variants of: B1
Details: Enterobacteria phage fd; pH 7; 25 °C; GdnHCl; CD; MOPS 50 mM; NaCl 100 mM; reversible: yes; structure 1VQB; whole UniProt chain shown

MIKVEIKPSQAQFTTRSGVSRQGKPYSLNMQLCYVDLGNEYPVLVKITLDEGQPAYAPGLYTVHLSSFKVGQFGSLMIDRLRLVPAK [E30M]
ddG of mutation (higher = less stable): -0.7 kcal/mol | denaturant m value: 3.7 kcal/mol/M | denaturant midpoint (higher = more stable): 2.78 M | unfolding free energy: 9.7 kcal/mol

MIKVEIKPSQAQFTTRSGVSRQGKPYSLNEQLSYVDLGNEYPVLVKITLDEGQPAYAPGLYTVHLSSFKVGQFGSLMIDRLRLVPAK [C33S]
ddG of mutation (higher = less stable): 4.2 kcal/mol | denaturant m value: 4 kcal/mol/M | denaturant midpoint (higher = more stable): 1.4 M | unfolding free energy: 4.8 kcal/mol

MIKVEIKPSQAQFTTRSGVSRQGKPYSLNEQLCYVDLGNEYPVLVKITLDEGQPAYAPGLYTVHLSSFKPGQFGSLMIDRLRLVPAK [V70P]
ddG of mutation (higher = less stable): 5 kcal/mol | denaturant m value: 4.4 kcal/mol/M | denaturant midpoint (higher = more stable): 1.3 M | unfolding free energy: 4 kcal/mol

MIKVEIKPSQAQFTTRSGVSRQGKPYSLNEQLCYVDLGNEYPVLVKITLDEGQPAYAPGLYTVHLSSFKCGQFGSLMIDRLRLVPAK [V70C]
ddG of mutation (higher = less stable): 3.1 kcal/mol | denaturant m value: 4.4 kcal/mol/M | denaturant midpoint (higher = more stable): 1.7 M | unfolding free energy: 5.9 kcal/mol

MIKVEIKPSQAQFTTRSGVSRQGKPYSLNEQLCYVDLGNEYPVLVKTTLDEGQPAYAPGLYTVHLSSFKVGQFGSLMIDRLRLVPAK [I47T]
ddG of mutation (higher = less stable): 7.4 kcal/mol | denaturant m value: 4.9 kcal/mol/M | denaturant midpoint (higher = more stable): 0.9 M | unfolding free energy: 1.6 kcal/mol

MIKVEIKPSQAQFTTRSGVSRQGKPYSLNEQLCYVNLGNEYPVLVKITLDEGQPAYAPGLYTVHLSSFKVGQFGSLMIDRLRLVPAK [D36N]
ddG of mutation (higher = less stable): 1 kcal/mol | denaturant m value: 4.2 kcal/mol/M | denaturant midpoint (higher = more stable): 2.2 M | unfolding free energy: 8 kcal/mol

MIKVEIKPSQAQFTTRSGVSRQGKPYSLNEQLCYVCLGNEYPVLVKITLDEGQPAYAPGLYTVHLSSFKVGQFGSLMIDRLRLVPAK [D36C]
ddG of mutation (higher = less stable): 2 kcal/mol | denaturant m value: 3.5 kcal/mol/M | denaturant midpoint (higher = more stable): 2 M | unfolding free energy: 7 kcal/mol

MIKVEIKPSQAQFTTRSGVSRQGKPYSLNEQLCYVDLGNEYPVLVKITLDEGQPAYAPGLYTVHLSSLKVGQFGSLMIDRLRLVPAK [F68L]
ddG of mutation (higher = less stable): 4.2 kcal/mol | denaturant m value: 3.4 kcal/mol/M | denaturant midpoint (higher = more stable): 1.4 M | unfolding free energy: 4.8 kcal/mol

MIKVEIKPSQAQFTTRSGVSRQGKPYSLNEQLCYVDLGNEYPVLVKITLDEGQPAYAPGLYTVHLSSFMVGQFGSLMIDRLRLVPAK [K69M]
ddG of mutation (higher = less stable): -0.2 kcal/mol | denaturant m value: 3.1 kcal/mol/M | denaturant midpoint (higher = more stable): 2.7 M | unfolding free energy: 9.2 kcal/mol

MIKVEIKPSQAQFTTRSGVSRQGKPYSLNEQLCYVDLGNEYPVLVKITLHEGQPAYAPGLYTVHLSSFKVGQFGSLMIDRLRLVPAK [D50H]
ddG of mutation (higher = less stable): 1.5 kcal/mol | denaturant m value: 3.8 kcal/mol/M | denaturant midpoint (higher = more stable): 2.1 M | unfolding free energy: 7.5 kcal/mol
